{"source": "paper PMC10572585", "system": "MBP-CPEB", "test": "EMSA", "conditions": "10 mM HEPES-KOH pH 7.9, 50 mM KCl, 1 mM MgCl2, 0.1 mM ZnCl2, 0.1% NP-40, 1 mM DTT, 2 ug yeast tRNA, 2 ug BSA, 12 U RNaseOUT, 10 uL, 15 fmol RNA, room …"}
{"substance": "c-myc 3'UTR pA2 wild type (cCPE + ncCPE1 + ncCPE2)", "values": [{"measurement": "Kd", "setting": "two CPEB molecules bound (second shift)", "result": 279, "unit": "nM"}]}
{"substance": "c-myc pA2 cCPE only (ncCPE1 and ncCPE2 mutated)", "values": [{"measurement": "Kd", "result": 212, "unit": "nM"}]}
{"substance": "c-myc pA2 ncCPE1 only (cCPE and ncCPE2 mutated)", "values": [{"measurement": "Kd", "result": 890, "unit": "nM"}]}
{"substance": "c-myc pA2 ncCPE1/2 (cCPE mutated)", "values": [{"measurement": "Kd", "setting": "no second CPEB binding", "result": 891, "unit": "nM"}]}
{"substance": "c-myc pA2 ncCPE2 only (cCPE and ncCPE1 mutated)", "values": [{"measurement": "Kd", "setting": "low affinity, Kd lower bound", "result": "> 1000", "unit": "nM"}]}
